Data reported in patent publication US20140147444A1 (published 2014).
Numbering of substitutions follows the chain as printed. Numbers in names are those of the source.

T1: human OPGbp [143-317] (human, UniProt O14788 143-317)
T1 construct: also called OPGL
T1 sequence (looked up): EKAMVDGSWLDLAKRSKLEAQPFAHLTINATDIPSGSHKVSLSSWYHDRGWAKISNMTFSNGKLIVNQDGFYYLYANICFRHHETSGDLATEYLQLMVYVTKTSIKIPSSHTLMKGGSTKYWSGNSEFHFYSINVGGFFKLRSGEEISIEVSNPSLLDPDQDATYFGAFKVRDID

B1: “AT” Fab variant D95A (heavy chain CDR3) (Fab, name in Kabat numbering, V domains shown)
VH: QVQLVQSGAEVRKPGASVKVSCKASGYDFSNYAIHWVRQAPGQRLEWMGWINAGNGNTKFSQKFQGRITVTRDTAASTAYMELRSLRSEDTAVYYCARASSNMVRGIIIAYYFDYWGQGTLVTVSS
VL: EIVMTQSPSSLSASVGDRVTITCRASQSISRYLNWYQLKPGKAPRLLIYGASSLQSGVPSRFSGSGSGAEFTLTISSLQPEDIATYYCQHTRAFGQGTKVEIKR
B2: “AT” Fab variant N98A (heavy chain CDR3) (Fab, name in Kabat numbering, V domains shown)
VH: B1 VH with A99D, N102A
VL: B1 VL
B3: “AT” Fab variant R(100a)A (heavy chain CDR3) (Fab, name in Kabat numbering, V domains shown)
VH: B1 VH with A99D, R105A
VL: B1 VL
B4: “AT” Fab variant S97A (heavy chain CDR3) (Fab, name in Kabat numbering, V domains shown)
VH: B1 VH with A99D, S101A
VL: B1 VL
B5: “AT” Fab variant Y(100h)A (heavy chain CDR3) (Fab, name in Kabat numbering, V domains shown)
VH: B1 VH with A99D, Y112A
VL: B1 VL
B6: “AT” Fab variant G(100b)A (heavy chain CDR3) (Fab, name in Kabat numbering, V domains shown)
VH: B1 VH with A99D, G106A
VL: B1 VL
B7: “AT” Fab variant V100A (heavy chain CDR3) (Fab, name in Kabat numbering, V domains shown)
VH: B1 VH with A99D, V104A
VL: B1 VL
B8: “AT” Fab variant Y(100g)A (heavy chain CDR3) (Fab, name in Kabat numbering, V domains shown)
VH: B1 VH with A99D, Y111A
VL: B1 VL
B9: “AT” Fab variant I(100c)A (heavy chain CDR3) (Fab, name in Kabat numbering, V domains shown)
VH: B1 VH with A99D, I107A
VL: B1 VL
B10: “AT” Fab variant M99A (heavy chain CDR3) (Fab, name in Kabat numbering, V domains shown)
VH: B1 VH with A99D, M103A
VL: B1 VL
B11: “AT” Fab variant S96A (heavy chain CDR3) (Fab, name in Kabat numbering, V domains shown)
VH: B1 VH with A99D, S100A
VL: B1 VL
B12: “AT” Fab variant I(100e)A (heavy chain CDR3) (Fab, name in Kabat numbering, V domains shown)
VH: B1 VH with A99D, I109A
VL: B1 VL
B13: “AT” Fab variant I(100d)A (heavy chain CDR3) (Fab, name in Kabat numbering, V domains shown)
VH: B1 VH with A99D, I108A
VL: B1 VL
B14: human OPG [22-194]-Fc (Fc fusion, UniProt O00300 22-194, looked up, not shown: a dimerising Fc or GST)
chain: ETFPPKYLHYDEETSHQLLCDKCPPGTYLKQHCTAKWKTVCAPCPDHYYTDSWHTSDECLYCSPVCKELQYVKQECNRTHNRVCECKEGRYLEIEFCLKHRSCPPGFGVVQAGTPERNTVCKRCPDGFFSNETSSKAPCRKHTNCSVFGLLLTQKGNATHDNICSGNSESTQK
B15: “AT” antibody variant S97M (heavy chain CDR3) (antibody, name in Kabat numbering, V domains shown)
VH: B1 VH with A99D, S101M
VL: B1 VL
notes: not shown: human IgG1 CH1, hinge, CH2 and CH3
B16: “AT” antibody variant S97I (heavy chain CDR3) (antibody, name in Kabat numbering, V domains shown)
VH: B1 VH with A99D, S101I
VL: B1 VL
notes: as for B15
B17: “AT” antibody variant S97P (heavy chain CDR3) (antibody, name in Kabat numbering, V domains shown)
VH: B1 VH with A99D, S101P
VL: B1 VL
notes: as for B15
B18: “AT” antibody variant S97R (heavy chain CDR3) (antibody, name in Kabat numbering, V domains shown)
VH: B1 VH with A99D, S101R
VL: B1 VL
notes: as for B15
B19: “AT” antibody variant S97V (heavy chain CDR3) (antibody, name in Kabat numbering, V domains shown)
VH: B1 VH with A99D, S101V
VL: B1 VL
notes: as for B15
B20: “AT” antibody variant S97Q (heavy chain CDR3) (antibody, name in Kabat numbering, V domains shown)
VH: B1 VH with A99D, S101Q
VL: B1 VL
notes: as for B15
B21: “AT” antibody variant S97T (heavy chain CDR3) (antibody, name in Kabat numbering, V domains shown)
VH: B1 VH with A99D, S101T
VL: B1 VL
notes: as for B15
B22: “AT” antibody variant S97K (heavy chain CDR3) (antibody, name in Kabat numbering, V domains shown)
VH: B1 VH with A99D, S101K
VL: B1 VL
notes: as for B15
B23: “AT” antibody variant S97L (heavy chain CDR3) (antibody, name in Kabat numbering, V domains shown)
VH: B1 VH with A99D, S101L
VL: B1 VL
notes: as for B15
B24: “AT” antibody variant S97Y (heavy chain CDR3) (antibody, name in Kabat numbering, V domains shown)
VH: B1 VH with A99D, S101Y
VL: B1 VL
notes: as for B15
B25: “AT” antibody variant S97W (heavy chain CDR3) (antibody, name in Kabat numbering, V domains shown)
VH: B1 VH with A99D, S101W
VL: B1 VL
notes: as for B15
B26: “AT” antibody variant S97N (heavy chain CDR3) (antibody, name in Kabat numbering, V domains shown)
VH: B1 VH with A99D, S101N
VL: B1 VL
notes: as for B15
B27: “AT” antibody variant N98A (heavy chain CDR3) (antibody, name in Kabat numbering, V domains shown)
VH: B1 VH with A99D, N102A
VL: B1 VL
notes: as for B15
B28: “AT” antibody variant S97A, N98A (heavy chain CDR3) (antibody, name in Kabat numbering, V domains shown)
VH: B1 VH with A99D, S101A, N102A
VL: B1 VL
notes: as for B15
B29: “AT” antibody variant S96A (heavy chain CDR3) (antibody, name in Kabat numbering, V domains shown)
VH: B1 VH with A99D, S100A
VL: B1 VL
notes: as for B15
B30: “AT” antibody variant S96A, N98A (heavy chain CDR3) (antibody, name in Kabat numbering, V domains shown)
VH: B1 VH with A99D, S100A, N102A
VL: B1 VL
notes: as for B15
B31: “AT” antibody variant S97A (heavy chain CDR3) (antibody, name in Kabat numbering, V domains shown)
VH: B1 VH with A99D, S101A
VL: B1 VL
notes: as for B15
B32: “AT” antibody variant S96A, S97A, N98A (heavy chain CDR3) (antibody, name in Kabat numbering, V domains shown)
VH: B1 VH with A99D, S100A, S101A, N102A
VL: B1 VL
notes: as for B15
B33: “AT” antibody variant S96A, S97A (heavy chain CDR3) (antibody, name in Kabat numbering, V domains shown)
VH: B1 VH with A99D, S100A, S101A
VL: B1 VL
notes: as for B15

Each binder was assayed against T1, human OPGbp [143-317] (assay: SPR (BIAcore), immobilized OPGbp [143-317]).
B1: no binding.
In the case of B2, the koff is reported as 0.012 s⁻¹.
B3 showed a koff of 0.303 s⁻¹.
Binder B4 has a koff of 0.0062 s⁻¹.
For B5, the koff was 0.368 s⁻¹.
With B6 the koff was 0.657 s⁻¹.
With B7 the koff was 0.261 s⁻¹.
For B8, the koff was 0.074 s⁻¹.
B9 was tested, and the koff was 0.53 s⁻¹.
With B10 the koff was 1.12 s⁻¹.
B11 was tested, and the koff was 0.0072 s⁻¹.
In the case of B12, the koff is reported as 0.0069 s⁻¹.
B13 was tested, and the koff was 0.622 s⁻¹.

These binders were tested against T1, human OPGbp [143-317] (assay: cell-based or functional assay).
For B14, the “RAW cell assay, IC50, positive control” value was 0.033 µg/mL.

Biological target: T1, human OPGbp [143-317]
Test: SPR (BIAcore), immobilized OPGbp [143-317]
Remark: another data set of the same source
B15 gave a Kd of 12.4 nM, a koff of 0.029 s⁻¹ and a kon of 2.33e+06 M⁻¹ s⁻¹.
B16 gave a Kd of 0.87 nM, a koff of 0.0018 s⁻¹ and a kon of 2.1e+06 M⁻¹ s⁻¹.
Binder B17 has a Kd of 24.5 nM, a koff of 0.0269 s⁻¹ and a kon of 1.1e+06 M⁻¹ s⁻¹.
In the case of B18, the Kd is reported as 28.9 nM, the koff is reported as 0.118 s⁻¹ and the kon is reported as 4.09e+06 M⁻¹ s⁻¹.
With B19 the Kd was 1.18 nM, the koff was 0.00358 s⁻¹ and the kon was 3.04e+06 M⁻¹ s⁻¹.
B20 gave a Kd of 8.19 nM, a koff of 0.00598 s⁻¹ and a kon of 730000 M⁻¹ s⁻¹.
In the case of B21, the Kd is reported as 2.51 nM, the koff is reported as 0.00116 s⁻¹ and the kon is reported as 463000 M⁻¹ s⁻¹.
Work on B22 yielded a Kd of 0.4 nM, a koff of 0.00578 s⁻¹ and a kon of 1.45e+07 M⁻¹ s⁻¹.
Work on B23 yielded a Kd of 0.92 nM, a koff of 0.00069 s⁻¹ and a kon of 750000 M⁻¹ s⁻¹.
B24: no binding.
B25: no binding.
With B26 the Kd was 4.59 nM, the koff was 0.00411 s⁻¹ and the kon was 895000 M⁻¹ s⁻¹.

Biological target: T1, human OPGbp [143-317]
Test: SPR (BIAcore), immobilized OPGbp [143-317]
Remark: another data set of the same source
B27 was tested, and the Kd was 0.67 nM, the koff was 0.0009 s⁻¹ and the kon was 1.3e+06 M⁻¹ s⁻¹.
B28: no binding.
B29 gave a Kd of 2.5 nM, a koff of 0.00064 s⁻¹ and a kon of 260000 M⁻¹ s⁻¹.
B30: no binding.
For B31, the Kd was 2.9 nM, the koff was 0.0015 s⁻¹ and the kon was 530000 M⁻¹ s⁻¹.
B32: no binding.
With B33 the Kd was 8.9 nM, the koff was 0.00284 s⁻¹ and the kon was 317000 M⁻¹ s⁻¹.
